Laboratory results published in patent publication US20110171178A1 (CUREDM GROUP, published 2011).

T1: HIP receptor (EXTL3) (human, UniProt O43909 1-919)
T1 construct: whole, on cells; Endogenous protein of PANC-1 cells, seen by immunostaining and Western blot; also called receptor for Human ProIslet Peptide
T1 sequence (looked up): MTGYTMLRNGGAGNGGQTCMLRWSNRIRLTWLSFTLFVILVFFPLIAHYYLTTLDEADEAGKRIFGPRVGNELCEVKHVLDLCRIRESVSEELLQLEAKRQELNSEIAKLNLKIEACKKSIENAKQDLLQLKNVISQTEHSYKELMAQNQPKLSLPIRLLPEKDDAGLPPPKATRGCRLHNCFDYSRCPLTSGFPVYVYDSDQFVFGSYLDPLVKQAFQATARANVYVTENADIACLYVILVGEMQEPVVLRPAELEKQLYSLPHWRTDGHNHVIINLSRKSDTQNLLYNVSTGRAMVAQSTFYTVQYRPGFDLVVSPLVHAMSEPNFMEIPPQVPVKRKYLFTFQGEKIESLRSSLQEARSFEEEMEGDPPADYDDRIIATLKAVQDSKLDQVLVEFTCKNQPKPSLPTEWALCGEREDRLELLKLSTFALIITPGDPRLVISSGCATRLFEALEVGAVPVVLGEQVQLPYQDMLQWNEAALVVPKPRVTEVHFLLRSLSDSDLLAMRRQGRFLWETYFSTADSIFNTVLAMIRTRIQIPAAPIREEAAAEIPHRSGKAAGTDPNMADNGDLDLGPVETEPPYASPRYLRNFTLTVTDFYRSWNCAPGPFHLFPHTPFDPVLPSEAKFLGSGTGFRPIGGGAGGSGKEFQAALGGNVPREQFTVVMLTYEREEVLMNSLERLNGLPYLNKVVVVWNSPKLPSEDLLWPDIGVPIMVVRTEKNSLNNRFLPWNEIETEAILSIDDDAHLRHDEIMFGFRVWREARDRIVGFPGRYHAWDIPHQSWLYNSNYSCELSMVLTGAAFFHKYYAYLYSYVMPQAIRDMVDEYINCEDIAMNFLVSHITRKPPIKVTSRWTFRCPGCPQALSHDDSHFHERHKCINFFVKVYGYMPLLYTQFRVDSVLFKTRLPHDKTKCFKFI


Molecular target: T1, HIP receptor (EXTL3)
Assay: receptor immunostaining and trafficking in PANC-1 cells (indirect)
Method: The upper panels indicated by the Cy3 immunofluorescent staining of EXTL3 (red). In the lower panel of images the Cy3 immunostaining of EXTL3 has been overlaid with DAPI (blue) staining of the nuclei. Cells were grown in standard growth medium as a control and compared to cells grown serum-free medium (SFM) in the presence or absence of HIP. […] The cell borders are well-defined indicating surface expression of EXTL3 on the plasma membrane. The yellow arrows delineate the cell borders while the nuclei are shown in blue. The middle images are cells grown in SFM. EXTL3 is localized in the cytoplasm as indicated by cytoplasmic Cy3 staining. The green arrows show the lack of staining in the position of the nuclei. […] In the lower image of cells grown in SFM and HIP, the blue arrows indicate the position of the nuclei. In the lower image there is an overlap of EXTL3-Cy3 staining and nuclear DAPI staining that corroborates the nuclear localization of EXTL3 (blue arrows). Scale bar=20 μm in all images.

Row | binding result | Binder
1 | binds | Ac-IGLHDPTQGTEPNG-NH2 (also called Optimized HIP2B) [HIP2Blocked (Ac-Ile-Gly-Leu-His-Asp-Pro-Thr-Gln-Gly-Thr-Glu-Pro-Asn-Gly-NH2)]
2 | binds | IGLHDPTQGTEPNG [HIP2 (Human proIslet Peptide, Ile-Gly-Leu-His-Asp-Pro-Thr-Gln-Gly-Thr-Glu-Pro-Asn-Gly)]
